Data taken from publication PMC8016129, “Switching the substrate specificity of lysoplasmalogen‐specific phospholipase D” (FEBS Open Bio, 2021).

Tests used:
[1] = substrate: CCCCCCCCCCCCCCCC/C=C\OC[C@@H](O)COP(=O)([O-])OCC[N+](C)(C)C; assay: released choline by choline oxidase/peroxidase colorimetric assay, Michaelis-Menten fit; assay type: biochemical, Thermocrispum sp. RD004668; conditions: pH 8.0, 50 °C, 1 min, 2 mM CaCl2, substrate micelles
Text: (§1) released choline by choline oxidase/peroxidase colorimetric assay, Michaelis-Menten fit on LyPls-PLD (lysoplasmalogen-specific phospholipase D)

[2] = substrate: CCCCCCCCCCCCCCCCOC[C@@H](O)COP(=O)([O-])OCC[N+](C)(C)C; assay: as above; assay type: biochemical, Thermocrispum sp. RD004668; conditions: pH 8.0, 50 °C, 1 min, 2 mM CaCl2, substrate micelles
Text: as §1

| Protein | Km [1] [µM] | kcat [1] [s⁻¹] | kcat/Km [1] [M⁻¹ s⁻¹] | Km [2] [µM] | kcat [2] [s⁻¹] | kcat/Km [2] [M⁻¹ s⁻¹] |
| --- | --- | --- | --- | --- | --- | --- |
| LyPls-PLD (lysoplasmalogen-specific phospholipase D) (Thermocrispum sp. RD004668; F211L) (protein, recombinant from pET24/lpls-pld in E. coli BL21(DE3); purified on HisTrap HP) TTRTTDNPWLDARVLNMAHAGGENEAPANTLYAFKRAVKLGANMLELDVQSTKDDQLVVIHNATVDQTTDGTGKVRDLTFEQVHELDAAYNFIPGRHAVPGEPPESYPLRGVRTGEKKPPPGYQPSDFAIPKLADVLEAFPRTPINIEIKGTSDADIPSFLHNAKLLARLLKKTGRTDFIVTSLNDLAVAKFHLLAPDIPIAPGMAGLAAYFLLGVKPMHGTVALQIPVRYQGLEIATPEFIRRAHADGYAVHVWFSGTAPDDEATYNRIIDSCADGLMPAYPALLERILDERGIERPGRPGVDPCG | 76.7 ± 12.6 | 21 ± 0.91 | 271000 ± 46000 | 26.8 ± 8.55 | 187 ± 6.3 | 6.97e+06 ± 2.24e+06 |
| LyPls-PLD (lysoplasmalogen-specific phospholipase D) (Thermocrispum sp. RD004668; W282G) (protein, recombinant from pET24/lpls-pld in E. coli BL21(DE3); purified on HisTrap HP) TTRTTDNPWLDARVLNMAHAGGENEAPANTLYAFKRAVKLGANMLELDVQSTKDDQLVVIHNATVDQTTDGTGKVRDLTFEQVHELDAAYNFIPGRHAVPGEPPESYPLRGVRTGEKKPPPGYQPSDFAIPKLADVLEAFPRTPINIEIKGTSDADIPSFLHNAKLLARLLKKTGRTDFIVTSFNDLAVAKFHLLAPDIPIAPGMAGLAAYFLLGVKPMHGTVALQIPVRYQGLEIATPEFIRRAHADGYAVHVGFSGTAPDDEATYNRIIDSCADGLMPAYPALLERILDERGIERPGRPGVDPCG | 286 ± 51.7 | 10.5 ± 0.95 | 36000 ± 7250 | 71.7 ± 5.26 | 4.4 ± 0.082 | 60900 ± 4630 |
| LyPls-PLD (lysoplasmalogen-specific phospholipase D) (Thermocrispum sp. RD004668) (protein, recombinant from pET24/lpls-pld in E. coli BL21(DE3); purified on HisTrap HP) TTRTTDNPWLDARVLNMAHAGGENEAPANTLYAFKRAVKLGANMLELDVQSTKDDQLVVIHNATVDQTTDGTGKVRDLTFEQVHELDAAYNFIPGRHAVPGEPPESYPLRGVRTGEKKPPPGYQPSDFAIPKLADVLEAFPRTPINIEIKGTSDADIPSFLHNAKLLARLLKKTGRTDFIVTSFNDLAVAKFHLLAPDIPIAPGMAGLAAYFLLGVKPMHGTVALQIPVRYQGLEIATPEFIRRAHADGYAVHVWFSGTAPDDEATYNRIIDSCADGLMPAYPALLERILDERGIERPGRPGVDPCG | 88.9 ± 8.76 | 122 ± 3.47 | 1.37e+06 ± 141000 | 56.4 ± 16.9 | 74 ± 4.9 | 1.3e+06 ± 400000 |
| LyPls-PLD (lysoplasmalogen-specific phospholipase D) (Thermocrispum sp. RD004668; M71G) (protein, recombinant from pET24/lpls-pld in E. coli BL21(DE3); purified on HisTrap HP) TTRTTDNPWLDARVLNMAHAGGENEAPANTLYAFKRAVKLGANGLELDVQSTKDDQLVVIHNATVDQTTDGTGKVRDLTFEQVHELDAAYNFIPGRHAVPGEPPESYPLRGVRTGEKKPPPGYQPSDFAIPKLADVLEAFPRTPINIEIKGTSDADIPSFLHNAKLLARLLKKTGRTDFIVTSFNDLAVAKFHLLAPDIPIAPGMAGLAAYFLLGVKPMHGTVALQIPVRYQGLEIATPEFIRRAHADGYAVHVWFSGTAPDDEATYNRIIDSCADGLMPAYPALLERILDERGIERPGRPGVDPCG | 64.8 ± 4.18 | 57 ± 2.5 | 880000 ± 68500 | 69.3 ± 10.2 | 72 ± 2.9 | 1.04e+06 ± 159000 |
| LyPls-PLD (lysoplasmalogen-specific phospholipase D) (Thermocrispum sp. RD004668; N173A) (protein, recombinant from pET24/lpls-pld in E. coli BL21(DE3); purified on HisTrap HP) TTRTTDNPWLDARVLNMAHAGGENEAPANTLYAFKRAVKLGANMLELDVQSTKDDQLVVIHNATVDQTTDGTGKVRDLTFEQVHELDAAYNFIPGRHAVPGEPPESYPLRGVRTGEKKPPPGYQPSDFAIPKLADVLEAFPRTPIAIEIKGTSDADIPSFLHNAKLLARLLKKTGRTDFIVTSFNDLAVAKFHLLAPDIPIAPGMAGLAAYFLLGVKPMHGTVALQIPVRYQGLEIATPEFIRRAHADGYAVHVWFSGTAPDDEATYNRIIDSCADGLMPAYPALLERILDERGIERPGRPGVDPCG | 200 ± 42.3 | 42 ± 3.9 | 212000 ± 49000 | 110 ± 17.1 | 106 ± 4.0 | 965000 ± 153000 |
| LyPls-PLD (lysoplasmalogen-specific phospholipase D) (Thermocrispum sp. RD004668; F211C) (protein, recombinant from pET24/lpls-pld in E. coli BL21(DE3); purified on HisTrap HP) TTRTTDNPWLDARVLNMAHAGGENEAPANTLYAFKRAVKLGANMLELDVQSTKDDQLVVIHNATVDQTTDGTGKVRDLTFEQVHELDAAYNFIPGRHAVPGEPPESYPLRGVRTGEKKPPPGYQPSDFAIPKLADVLEAFPRTPINIEIKGTSDADIPSFLHNAKLLARLLKKTGRTDFIVTSCNDLAVAKFHLLAPDIPIAPGMAGLAAYFLLGVKPMHGTVALQIPVRYQGLEIATPEFIRRAHADGYAVHVWFSGTAPDDEATYNRIIDSCADGLMPAYPALLERILDERGIERPGRPGVDPCG |  |  |  | 52.2 ± 9.44 | 207 ± 15 | 3.96e+06 ± 769000 |
| LyPls-PLD (lysoplasmalogen-specific phospholipase D) (Thermocrispum sp. RD004668; F211T) (protein, recombinant from pET24/lpls-pld in E. coli BL21(DE3); purified on HisTrap HP) TTRTTDNPWLDARVLNMAHAGGENEAPANTLYAFKRAVKLGANMLELDVQSTKDDQLVVIHNATVDQTTDGTGKVRDLTFEQVHELDAAYNFIPGRHAVPGEPPESYPLRGVRTGEKKPPPGYQPSDFAIPKLADVLEAFPRTPINIEIKGTSDADIPSFLHNAKLLARLLKKTGRTDFIVTSTNDLAVAKFHLLAPDIPIAPGMAGLAAYFLLGVKPMHGTVALQIPVRYQGLEIATPEFIRRAHADGYAVHVWFSGTAPDDEATYNRIIDSCADGLMPAYPALLERILDERGIERPGRPGVDPCG |  |  |  | 40.6 ± 5.49 | 205 ± 8.9 | 5.06e+06 ± 720000 |
